Data: US20260176336A1 (MESTAG THERAPEUTICS, published 2026)

B1: Clone 4.2 (bispecific antibody, human IgG1, kappa, L234A L235A)
heavy 1: not shown
heavy 2: QLQLQESGPGLVKPSETLSLTCTVSGGSISSSTYYWGWIRQPPGKGLEWIGSIFYSGNTYYNPSLKSRVTISVDTSKNHFSLKLSSVTAADTAVYYCAREIIEPRPGYFDYWGQGTLVTVSSASTKGPSVFPLAPSSKSTSGGTAALGCLVKDYFPEPVTVSWNSGALTSGVHTFPAVLQSSGLYSLSSVVTVPSSSLGTQTYICNVNHKPSNTKVDKKVEPKSCDKTHTCPPCPAPEAAGGPSVFLFPPKPKDTLMISRTPEVTCVVVDVSHEDPEVKFNWYVDGVEVHNAKTKPREEQYNSTYRVVSVLTVLHQDWLNGKEYKCKVSNKALPAPIEKTISKAKGQPREPQVCTLPPSRDELTKNQVSLSCAVKGFYPSDIAVEWESNGQPENNYKTTPPVLDSDGSFFLVSKLTVDKSRWQQGNVFSCSVMHEALHNHYTQKSLSLSPG
light: not shown
notes: FAP:LTBR 1:1 heterodimer of LTBR VHH (clone 1.7) paired with FAP Fab (clone 3.5), human IgG1 LALA
B2: Clone 4.3 (bispecific antibody, human IgG1, kappa, L234A L235A)
heavy 1: not shown
heavy 2: QVQLVQSGAEVKKPGASVKVSCKASGYTFTGYYMHWVRQAPGQGLEWMGWIYPNTGGVNYAQNFQGRVTMTRDTSISTAYMELSRLRSDDTAVYYCARDDYNKNLDYWGQGTLVTVSSASTKGPSVFPLAPSSKSTSGGTAALGCLVKDYFPEPVTVSWNSGALTSGVHTFPAVLQSSGLYSLSSVVTVPSSSLGTQTYICNVNHKPSNTKVDKKVEPKSCDKTHTCPPCPAPEAAGGPSVFLFPPKPKDTLMISRTPEVTCVVVDVSHEDPEVKFNWYVDGVEVHNAKTKPREEQYNSTYRVVSVLTVLHQDWLNGKEYKCKVSNKALPAPIEKTISKAKGQPREPQVCTLPPSRDELTKNQVSLSCAVKGFYPSDIAVEWESNGQPENNYKTTPPVLDSDGSFFLVSKLTVDKSRWQQGNVFSCSVMHEALHNHYTQKSLSLSPG
light: not shown
notes: FAP:LTBR 1:1 heterodimer of LTBR VHH (clone 1.6) paired with FAP Fab (clone 3.6), human IgG1 LALA
B3: Clone 4.6 (bispecific antibody, human IgG1, kappa, L234A L235A)
heavy 1: not shown
heavy 2: QVQLVQSGAEVKKPGASVKVSCKASGYTFTGYYMHWVRQAPGQGLEWMGWIYPNTGGVNYAQNFQGRVTMTRDTSISTAYMELSRLRSDDTAVYYCARDDYNKNLDYWGQGTLVTVSSASTKGPSVFPLAPSSKSTSGGTAALGCLVKDYFPEPVTVSWNSGALTSGVHTFPAVLQSSGLYSLSSVVTVPSSSLGTQTYICNVNHKPSNTKVDKKVEPKSCDKTHTCPPCPAPEAAGGPSVFLFPPKPKDTLMISRTPEVTCVVVDVSHEDPEVKFNWYVDGVEVHNAKTKPREEQYNSTYRVVSVLTVLHQDWLNGKEYKCKVSNKALPAPIEKTISKAKGQPREPQVCTLPPSRDELTKNQVSLSCAVKGFYPSDIAVEWESNGQPENNYKTTPPVLDSDGSFFLVSKLTVDKSRWQQGNVFSCSVMHEALHNHYTQKSLSLSPG
light: not shown
notes: FAP:LTBR 2:1 heterodimer of FAP mAb (clone 3.6) with C terminal fused LTBR VHH (clone 1.7), human IgG1 LALA

Columns and labels:
[1] = biological target: T1, human LTBR endogenously expressed on cells (HepG2, A549, A375, HCC1187, RPMI-7951, primary human breast CAFs) (human, UniProt P36941 31-435); test: cell-based or functional assay
T1 sequence (P36941 31-435): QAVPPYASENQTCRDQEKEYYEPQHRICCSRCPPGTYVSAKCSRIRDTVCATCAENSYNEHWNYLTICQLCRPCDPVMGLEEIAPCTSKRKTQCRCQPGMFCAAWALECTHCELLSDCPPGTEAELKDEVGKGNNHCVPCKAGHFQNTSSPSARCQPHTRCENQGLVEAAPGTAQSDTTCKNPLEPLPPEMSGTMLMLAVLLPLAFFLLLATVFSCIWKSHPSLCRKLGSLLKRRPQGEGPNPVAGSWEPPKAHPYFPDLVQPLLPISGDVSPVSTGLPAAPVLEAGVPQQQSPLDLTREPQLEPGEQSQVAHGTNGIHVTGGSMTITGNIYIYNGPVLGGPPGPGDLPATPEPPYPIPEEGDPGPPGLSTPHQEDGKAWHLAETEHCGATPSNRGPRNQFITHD

[2] = biological target: T1, human LTBR endogenously expressed on …; test: cell-based or functional assay; remark: listed apart in the source
[3] = biological target: T1, human LTBR endogenously expressed on …; test: cell-based or functional assay; remark: listed apart in the source
[4] = biological target: T1, human LTBR endogenously expressed on …; test: cell-based or functional assay; remark: listed apart in the source
[5] = biological target: T1, human LTBR endogenously expressed on …; test: cell-based or functional assay; remark: listed apart in the source
[6] = biological target: T1, human LTBR endogenously expressed on …; test: flow cytometry, A549 cells
Description: (§1) In short, 1×10⁶ cells were resuspended in the FACS buffer (1% BSA, 0.1% Sodium Azide in PBS), and 50 μl was added to each well (5×10⁴ cells/well) of a 96-U bottom plate. The cells were washed once and resuspended in 50 μl/well of FACS buffer containing a 1:3, 11-point series dilutions of constructs 4.1-4.6 and clones 4.8-4.9 followed by 1 h incubation at 4° C. […] Next, cells were washed and resuspended in FACS buffer and read on Beckman Coulter CytoFLEX. The data were analysed using FloJo V10 and GraphPad Prism v9. Clone 4.7 was tested for binding to A375 (LTBR positive cell line) and the HEK293-FAP overexpressing cell line, as described in examples 2.4 and 3.5. The EC50 values can be found in.

[7] = biological target: T2, human FAP expressed on cells (transfected HEK293; FAP-CHO-K1 recombinant cell line, BPS cat no. 79947) (human, UniProt Q12884 1-760); test: flow cytometry, FAP-CHO-K1 cells
T2 construct: also called HuFAP-HEK293; Hek-FAP
Description: as §1

[8] = biological target: T3, Biotinylated hLTBR-His-Avitag (Acro, cat no LTR-H82E9-25 µg) (human, UniProt P36941 31-227, biotinylated (Avitag)); test: BLI (Octet), biotinylated LTBR on SA sensor, antibody as analyte
T3 construct: bought protein loaded on SA Streptavidin biosensors
T3 sequence (P36941 31-227 limits assumed): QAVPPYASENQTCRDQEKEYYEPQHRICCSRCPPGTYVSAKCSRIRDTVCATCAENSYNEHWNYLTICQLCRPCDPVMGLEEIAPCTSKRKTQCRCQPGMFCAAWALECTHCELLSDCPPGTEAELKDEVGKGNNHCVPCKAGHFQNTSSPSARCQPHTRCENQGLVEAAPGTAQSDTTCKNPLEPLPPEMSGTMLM
Description: Briefly, Biotinylated hLTBR-His-Avitag (Acro, cat no LTR-H82E9-25 μg) was loaded on SA Streptavidin biosensors (Fortebio) in kinetics buffer (ForteBio) followed by a 2-fold dilution series starting at 50 nM of FAP/LTBR bispecific antibodies. Binding kinetics were studied in a 1× Kinetics buffer where the association was allowed for 100 seconds, followed by dissociation for 300 seconds. Data generated were referenced by subtracting a parallel buffer blank, the baseline was aligned with the y-axis, inter-step correlation by alignment against dissociation was performed, and the data were smoothed by a Savitzky-Golay filter in the data analysis software. The processed data were fitted using a 1:1 Langmuir binding model with R\hat{ }2 as a measurement of fitting accuracy. The KD and R\hat{ }2 values can be found in.

[9] = biological target: cynomologus recombinant LTBR (Octet, Example 4.8) (cynomolgus (Macaca fascicularis), UniProt P36941 31-227 (human entry), limits assumed); test: BLI (Octet), cyno LTBR immobilised on ARG sensor, antibody at 25 nM
Sequence of cynomologus recombinant LTBR (Octet, Example 4.8) (P36941 other isoform, or with tags, fused parts or gaps limits assumed): as the sequence (P36941 31-227 limits assumed) above, with A2V, A7G, Q24R, I45S, N163D, K181R, L184S, P186S counted along it
Description: A 2-fold series dilution starting at 50 nM of cynomologus recombinant LTBR was immobilised on the surface of ARG biosensors (Fortebio), followed by FAP/LTBR bispecific at 25 nM. Binding kinetics were studied in a 1× Kinetics buffer where the association was allowed for 180 seconds, followed by dissociation for 100 seconds. Sensor tips were regenerated using ethylene glycol. Data generated were referenced by subtracting a parallel buffer blank, the baseline was aligned with the y-axis, inter-step correlation by alignment against dissociation was performed, and the data were smoothed by a Savitzky-Golay filter in the data analysis software. The processed data were fitted using a 1:1 Langmuir binding model with R\hat{ }2 as a measurement of fitting accuracy. The KD values can be found in.

[10] = biological target: T4, human FAP (Acro, cat no FAP-H82Q6) (human, UniProt Q12884 26-760); test: BLI (Octet), antibody captured by anti-Fc, FAP as analyte; * value outside instrument specifications
T4 construct: 'FAP is naturally a dimeric antigen'
Description: Binding to recombinant FAP proteins was investigated by Bio-Layer Interferometry (BLI) using the Octet instrument. Using standard amine coupling chemistry, an anti-Fc antibody was immobilised on the surface of ARG biosensors (Fortebio). The FAP/LTBR bispecific antibodies were loaded on the previously coated surface with anti-Fc capture antibody, followed by a 2-fold series dilution starting at 50 nM of either cyno FAP (Acro, cat no FAP-C82Q5) or human FAP (Acro, cat no FAP-H82Q6). Binding kinetics were studied in a 1× Kinetics buffer where the association was allowed for 200 seconds, followed by dissociation for 400 seconds. Sensor tips were regenerated using 10 mM Glycine pH 2.0. Data generated were referenced by subtracting a parallel buffer blank, the baseline was aligned with the y-axis, inter-step correlation by alignment against dissociation was performed, and the data were smoothed by a Savitzky-Golay filter in the data analysis software. The processed data were fitted using a 1:1 Langmuir binding model with R\hat{ }2 as a measurement of fitting accuracy. The Results are summarised in. Avidity was observed as FAP is naturally a dimeric antigen, and the limited detection by Octet with these molecules has been reached. Species cross-reactivity has been confirmed for all test samples.

Binder | HepG2 Reporter assay, HepG2:FAP-CHO-K1 Co-culture EC50 [1] [pM] | CCL19 upregulation, HCC1187:CAF Co-culture EC50 [2] [pM] | ICAM1 upregulation in CAFs monoculture assay EC50 [3] [pM] | chemokine (CCL5) induction in RPMI-7951 EC50 [4] [pM] | HCC-1187:RPMI7951 (cis-activation) co-culture assay CCL5 read-out EC50 [5] [pM] | HCC-1187:RPMI7951 (trans-activation) co-culture assay, CCL19 Read-out EC50 [5] [pM] | EC50 [6] [pM] | EC50 [7] [pM] | Kd [8] [pM] | Kd [9] [pM] | Kd [10] [pM]
B1 | 30 | 60 | 19 | 63 | 110 | 160 | 3200 | 470 | 3200 | 6750 | 325
B2 | 60 | 90 | 40 | 100 | 120 | 110 | 6900 | 800 | 3100 | 5780 | 192
B3 | 53 | 13 | 10 | 24 | 13 |  |  | 330 | 4300 | 17100 | 44.3
